Data as given in patent US20240317868A1 (Boehringer Ingelheim, published 2024).
Where a chain is given by its changes, count along the chain named. Names and notes keep the numbering of the source. Read-outs that look alike come from different tables or passages of the source. Blank lines part the entries; values can stand above or below the binder they belong to.

Tests used:
human IL1RAP [1] = molecular target: T1, human IL1RAP (human, UniProt Q9NPH3 21-367, limits assumed, biotinylated in the ELISA screens (site not stated)); test: ELISA, antigen titration: Fab (1:5) captured on anti-Fd coat 700 ng/ml (4.7 nM), IL1RAP antigen titrated (the concentration axis is the antigen), SA-HRP 1:4000
T1 construct: also called huIL1RAP; IL1RAP antigen
T1 sequence (looked up): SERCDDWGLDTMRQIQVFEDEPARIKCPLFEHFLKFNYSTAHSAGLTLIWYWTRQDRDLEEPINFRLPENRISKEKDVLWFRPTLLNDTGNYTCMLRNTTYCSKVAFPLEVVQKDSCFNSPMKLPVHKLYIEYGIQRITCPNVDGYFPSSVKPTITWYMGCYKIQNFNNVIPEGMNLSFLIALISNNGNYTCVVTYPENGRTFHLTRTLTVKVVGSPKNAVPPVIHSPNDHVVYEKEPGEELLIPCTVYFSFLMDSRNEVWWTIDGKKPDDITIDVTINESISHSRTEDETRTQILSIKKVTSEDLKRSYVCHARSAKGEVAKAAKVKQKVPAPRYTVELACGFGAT

human IL1RAP [2] = molecular target: T1, human IL1RAP; test: ELISA: Fab constant (4 nM) captured on Fd coat (67 nM), Biot-hu IL1RAP titrated from 6.8 nM (the concentration axis is the antigen), SA-HRP 1:4000
human IL1RAP [3] = molecular target: T1, human IL1RAP; test: as above; remark: listed apart in the source
human IL1RAP [4] = molecular target: T1, human IL1RAP; test: ELISA of point mutant IgG (light chain mutant with the parental chimeric heavy chain, CHO-E expression), one bar each, concentration not given
Text: For light chain 13 variants (T25A, E27Q, N28S, N30S, Y50A, K52S, T53Y, A55Q, E56S, H90Q, H91S, G93S and S95P) and 19 heavy chain variants (Y27G, I28T, L30S, T31S, W33Y, M34I, N35S, Q50R, F521, A541, S55L, D56G, S57I, T58A, N61A, E62Q, M63K, K65Q and D66G) were generated separately in the vector pTT5 (See FIG. 3A/B). The light chain mutants were paired with the parental chimeric heavy chain and heavy chain mutants were paired with parental chimeric light chain for expression analysis in CHO-E cells for 7 days. The resulting variants were evaluated for binding in ELISA experiments and compared to the parental chimeric IgG which has mouse variable region but human constant regions. For light chain variants, six point mutants VK-T25A, E27Q, N28S, N30S, K52S and T53Y depicted binding similar to chimeric IgG (+10% control; FIG. 3A) while for heavy chain […] point mutants VH-I28T, L30S, M34I, N35S, D56G, T58A, N61A, E62Q, M63K, K65Q and D66G depicted similar binding as chimeric IgG (+10% control; FIG. 3B).

human IL1RAP [5] = molecular target: T1, human IL1RAP; test: hKD, method not stated
[6] = molecular target: human IL1RAP on cells (human) (UniProt Q9NPH3); test: cell-based or functional assay

binding result (human IL1RAP [1]): binds
B1: engrafted Fab (GO11 CDRs on IGKV1-39*01 and IGHV1-69*02) (Fab, V domains shown)
VH: QVQLVQSGAEVKKPGSSVKVSCKASGYIFLTYWMNWVRQAPGQGLEWMGQIFPASDSTYYNEMFKDRVTITADKSTSTAYMELSSLRSEDTAVYYCARSGPYSYYAGGYALDYWGQGTLVTVSS
VL: DIQMTQSPSSLSASVGDRVTITCRTSENINSYLAWYQQKPGKAPKLLIYYAKTLAEGVPSRFSGSGSGTDFTLTISSLQPEDFATYYCQHHYGTSLTFGQGTKLEIK
notes: Fab from E. coli periplasmic extract; constant parts not specified; also called HUMANIZED/GRAFT 005-G011 #A1

EC50 (read off the curve) (human IL1RAP [2]): ~0.4 nM
EC50 (read off the curve) (human IL1RAP [3]): ~0.4 nM
B2: IL1RAP G011 chimeric Fab (Fab, V domains shown)
VH: QVHLQQSGPELVRPGTSVKISCEASGYIFLTYWMNWVKQRPGQGLEWIGQIFPASDSTYYNEMFKDKARFTVDKSSSTAYMQFSSLTSEDTAVYFCARSGPYSYYAGGYALDYWGQGTSVTVSS
VL: DIQMTQSPASLSASVGETVTITCRTSENINSYLAWYQQKQGKSPQLLVHYAKTLAEGVPSRFSGSGSGTQFSLKINSLKPEDFGSYYCQHHYGTSLTFGAGTKLELK
notes: Mouse VK and VH fused to human Ck and CH1; expressed in E. coli (periplasmic extract or supernatant); also called mouse Fab; chimeric parent anti-IL1RAP GO11 Fab

binding result (human IL1RAP [4]): binds
B4: VK-S95P (antibody, V domains shown)
VH: B2 VH
VL: DIQMTQSPASLSASVGETVTITCRTSENINSYLAWYQQKQGKSPQLLVHYAKTLAEGVPSRFSGSGSGTQFSLKINSLKPEDFGSYYCQHHYGTPLTFGAGTKLELKR
notes: germlining point mutant, paired with the parental chimeric heavy chain; also called GO11 chimeric IgG, light chain point mutant S95P; copies: 2 + 2

binding result (human IL1RAP [4]): binds
B7: VK-H91S (antibody, V domains shown)
VH: B2 VH
VL: B4 VL with H91S, P95S
notes: germlining point mutant, paired with the parental chimeric heavy chain; also called GO11 chimeric IgG, light chain point mutant H91S; copies: 2 + 2

binding result (human IL1RAP [4]): binds
B9: GO11 chimeric IgG, light chain point mutant VK-K52S (antibody, V domains shown)
VH: B2 VH
VL: B2 VL with K52S
notes: Light chain mutant paired with the parental chimeric heavy chain; IgG backbone, expressed in CHO-E

binding result (human IL1RAP [4]): binds
B10: VK-E56S (antibody, V domains shown)
VH: B2 VH
VL: B4 VL with E56S, P95S
notes: germlining point mutant, paired with the parental chimeric heavy chain; also called GO11 chimeric IgG, light chain point mutant E56S; copies: 2 + 2

binding result (human IL1RAP [4]): binds
B11: GO11 chimeric IgG, light chain point mutant VK-E27Q (antibody, V domains shown)
VH: B2 VH
VL: B2 VL with E27Q
notes: as for B9

Kd (human IL1RAP [5]): 0.2 nM
B15: CAN04 (antibody, V domains shown)
VH: QVQLQQSGPELLKPGASVKISCKASGYAFSSSWMNWVKQRPGKGLEWIGRIYPGDGNTHYSGKFKGKATLTADKSSSIAYMQLSSLTSEDSAVYFCGEGYLDPMDYWGQGTSVTVSS
VL: DIQMTQTTSSLSASLGDRVTISCSASQGINNYLNWYQQKPDGTVKLLIHYTSGLHAGVPSRFSGSGSGTDYSLTISNLEPEDVATYYCQQYSILPWTFGGGTKLEIKR

IC90 IFN-gamma release (WB), IL-33 [6]: > 1000 nM
IC90 IL-8 release (NCI-H292), IL1-B [6]: > 1000 nM
IC90 IL-8 release (NCI-H292), IL-1A [6]: > 1000 nM
IC90 IL-8 release (NCI-H292), IL-33 [6]: 46 nM
IC90 IL-8 release (NCI-H292), IL-36G [6]: > 1000 nM
IC90 MIP-1B release (WB), IL1-B [6]: 125 nM
IC90 MIP-1B release (WB), IL-1A [6]: > 1000 nM
IC90 MIP-1B release (WB), IL-36G [6]: 43 nM
IC90 Nf-KB activation (HEK-Blue), IL1-B [6]: 56 nM
IC90 Nf-KB activation (HEK-Blue), IL-1A [6]: > 1000 nM
IC90 Nf-KB activation (HEK-Blue), IL-33 [6]: > 1000 nM
IC90 Nf-KB activation (HEK-Blue), IL-36G [6]: > 1000 nM
B16: CAN04 (antibody, INN chains, looked up, V domains shown)
VH: QVQLVQSGAEVKKPGSSVKVSCKASGYAFTSSWMNWVRQAPGQGLEWMGRIYPGDGNTHYAQKFQGRVTLTADKSTSTAYMELSSLRSEDTAVYYCGEGYLDPMDYWGQGTLVTVSS
VL: DIQMTQSPSSLSASVGDRVTITCQASQGINNYLNWYQQKPGKAPKLLIHYTSGLHAGVPSRFSGSGSGTDYTLTISSLEPEDVATYYCQQYSILPWTFGGGTKVEIK

More lines, now with the values behind:

B3: VK-Y50A (antibody, V domains shown)
VH: B2 VH
VL: B4 VL with Y50A, P95S
notes: germlining point mutant, paired with the parental chimeric heavy chain; also called GO11 chimeric IgG, light chain point mutant Y50A; copies: 2 + 2
binding result (human IL1RAP [4]): binds

B5: GO11 chimeric IgG, light chain point mutant VK-N30S (antibody, V domains shown)
VH: B2 VH
VL: B2 VL with N30S
notes: as for B9
binding result (human IL1RAP [4]): binds

B6: GO11 chimeric IgG, light chain point mutant VK-T25A (antibody, V domains shown)
VH: B2 VH
VL: B2 VL with T25A
notes: as for B9
binding result (human IL1RAP [4]): binds

B8: GO11 chimeric IgG, light chain point mutant VK-N28S (antibody, V domains shown)
VH: B2 VH
VL: B2 VL with N28S
notes: as for B9
binding result (human IL1RAP [4]): binds

B12: VK-G93S (antibody, V domains shown)
VH: B2 VH
VL: B4 VL with G93S, P95S
notes: germlining point mutant, paired with the parental chimeric heavy chain; also called GO11 chimeric IgG, light chain point mutant G93S; copies: 2 + 2
binding result (human IL1RAP [4]): binds

B13: VK-H90Q (antibody, V domains shown)
VH: B2 VH
VL: B4 VL with H90Q, P95S
notes: germlining point mutant, paired with the parental chimeric heavy chain; also called GO11 chimeric IgG, light chain point mutant H90Q; copies: 2 + 2
binding result (human IL1RAP [4]): binds

B14: VK-A55Q (antibody, V domains shown)
VH: B2 VH
VL: B4 VL with A55Q, P95S
notes: germlining point mutant, paired with the parental chimeric heavy chain; also called GO11 chimeric IgG, light chain point mutant A55Q; copies: 2 + 2
binding result (human IL1RAP [4]): binds
